Several values for one entry are separate records, joined by “and”; a condition that tells them apart may be missing. Identical values can stand only once.

In assay [1] the target is recombinant human CD38 extracellular domain (ECD) fused to a his-tag (human) (UniProt P28907). In words: SPR.
Assay [2] has as its target CD38 on CD38+ human cells (Daudi, Ramos, PBMCs) (human (endogenous in Daudi, Ramos and PBMCs)) (UniProt P28907). Kind of assay: flow cytometry on cells. A general note: A flow cytometer gives signals particle by particle.
The target of assay [3] is human CD38 on Chinese hamster ovary (CHO) cells stably transfected to express CD38 (human) (UniProt P28907). In words: flow cytometry on cells.
Assay [4] deals with TNB-738, anti-CD38 biparatopic antibody (human (from transgenic UniRat) | human). Kind of assay: BLI.

Broadly, the Kd is the concentration at which binding is half-saturated. For orientation: EC50 means the concentration needed to bring the measured effect to its halfway point. Read a high EC50 as lower potency in that assay. “TNB-738, anti-CD38 biparatopic antibody (bispecific antibody)”: the Kd in assay [1] was 0.1 to 3.8 nM. Also, the EC50 in assay [2] was 39.7 nM and 50.3 nM; in assay [3] it was 70.2 nM.

For “recombinant human CD38 extracellular domain (ECD) fused to a his-tag (from UniProt P28907 43-300) (domain or fragment)”, the Kd in assay [4] is 2.48 nM.

The values are drawn from PMC9311320.
